This experiment has as its target HLA-A*02:01 (Homo sapiens, UniProt P04439, D140Y/D185E/D98H/E176V/E277Q/G131W/G231S/I119V/I121R/I166T/I218V/L300P/L318F/N151K/N90K/P208A/P217A/Q86G/Q94H/R138H/R169H/T345S). The experiment is described as follows: MHC binding assay (UV-ligand exchange, beta2m ELISA). Particulars: binding of HLA-class I restricted peptides to HLA-A*02:01, β2m ELISA. Summed up:
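Binding capacity is expressed as the yield of UV-mediated ligand exchange, reflecting how well each peptide stabilizes peptide-receptive MHC. Stabilized complexes are read out by anti-β2m HRP ELISA (450 nm) after streptavidin capture, with refolded MLA-001 monomer standards for quantitation.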
For orientation: An ELISA detects its analyte on a solid surface through an enzyme-linked reagent.
For “147 (SILETVATL; listed as Homo sapiens) [compound 147]”, the “Peptide Exchange (MHC class I binding score, peptide exchange yield)” value (shortened to “Peptide Exchange”) is listed as ““+++” (≥50 = +++)”. Regarding “247 (KLKDRLPSI; listed as Homo sapiens) [compound 247]”, the “Peptide Exchange” value is given as ““++” (≥20% = ++)”.

Consider “169 (TLLLGLTEV; listed as Homo sapiens) [compound 169]”, for which the “Peptide Exchange” value is ““+++” (≥50 = +++)”. With “68 (GLDQQFAGLDL; listed as Homo sapiens) [compound 68]”, the “Peptide Exchange” value is reported as ““+” (≥10% = +)”.

For the substance “352 (ALVFELHYV; listed as Homo sapiens) [compound 352]”, the “Peptide Exchange” value is listed as ““+++” (≥50 = +++)”. As for “206 (HMQDVRVLL; listed as Homo sapiens) [compound 206]”, the “Peptide Exchange” value is given as ““+++” (≥50 = +++)”. As for “375 (VLWFKPVEL; listed as Homo sapiens) [compound 375]”, the “Peptide Exchange” value is on record as ““+++” (≥50 = +++)”.

For “244 (ILQALAVHL; listed as Homo sapiens) [compound 244]”, the “Peptide Exchange” value was ““+++” (≥50 = +++)”. Regarding “204 (GLLQINDKIAL; listed as Homo sapiens) [compound 204]”, the “Peptide Exchange” value is on record as ““+++” (≥50 = +++)”. For the substance “367 (NLWSLVAKV; listed as Homo sapiens) [compound 367]”, the “Peptide Exchange” value is ““+++” (≥50 = +++)”. “272 (VLDELPPLI; listed as Homo sapiens) [compound 272]”: the “Peptide Exchange” value was ““+++” (≥50 = +++)”.

For the substance “116 (LLIGATMQV; listed as Homo sapiens) [compound 116]”, the “Peptide Exchange” value is reported as ““+++” (≥50 = +++)”.

Consider “36 (FILTHVDQL; listed as Homo sapiens) [compound 36]”, for which the “Peptide Exchange” value is listed as ““++++” (≥75% = ++++)”. With “384 (YMIGSEVGNYL; listed as Homo sapiens) [compound 384]”, the “Peptide Exchange” value is given as ““++++” (≥75% = ++++)”. On to “55 (FMEPTLLML; listed as Homo sapiens) [compound 55]”, for which the “Peptide Exchange” value was ““+++” (≥50 = +++)”. On to “185 (VMDDQRDLI; listed as Homo sapiens) [compound 185]”, for which the “Peptide Exchange” value is given as ““++” (≥20% = ++)”. Take “374 (VLSVITEEL; listed as Homo sapiens) [compound 374]”: the “Peptide Exchange” value was ““+++” (≥50 = +++)”. On to “289 (ILEEQPMDMLL; listed as Homo sapiens) [compound 289]”, for which the “Peptide Exchange” value is recorded as ““+++” (≥50 = +++)”. As for “279 (YMAPEVVEA; listed as Homo sapiens) [compound 279]”, the “Peptide Exchange” value is ““+++” (≥50 = +++)”. Regarding “149 (SLDNGGYYI; listed as Homo sapiens) [compound 149]”, the “Peptide Exchange” value is ““+++” (≥50 = +++)”. Turning to “18 (LLGEFSIKM; listed as Homo sapiens) [compound 18]”, the “Peptide Exchange” value is ““+++” (≥50 = +++)”.

Turning to “21 (ALWAGLLTL; listed as Homo sapiens) [compound 21]”, the “Peptide Exchange” value is recorded as ““+++” (≥50 = +++)”.

Consider “203 (ALLSSQLAL; listed as Homo sapiens) [compound 203]”, for which the “Peptide Exchange” value is reported as ““+++” (≥50 = +++)”. For the substance “19 (QVMEKLAAV; listed as Homo sapiens) [compound 19]”, the “Peptide Exchange” value was ““+++” (≥50 = +++)”. In the case of “156 (SLNIGDVQL; listed as Homo sapiens) [compound 156]”, the “Peptide Exchange” value is ““+++” (≥50 = +++)”. On to “164 (SVHKGFAFV; listed as Homo sapiens) [compound 164]”, for which the “Peptide Exchange” value was ““+++” (≥50 = +++)”.

Consider “321 (RLLEFELAQL; listed as Homo sapiens) [compound 321]”, for which the “Peptide Exchange” value was ““+++” (≥50 = +++)”.

In the case of “313 (LMADLEGLHL; listed as Homo sapiens) [compound 313]”, the “Peptide Exchange” value is listed as ““+++” (≥50 = +++)”. For “67 (GLDDVTVEV; listed as Homo sapiens) [compound 67]”, the “Peptide Exchange” value was ““++” (≥20% = ++)”. Regarding “308 (SLYDVSRMYV; listed as Homo sapiens) [compound 308]”, the “Peptide Exchange” value is given as ““++++” (≥75% = ++++)”. Turning to “218 (ALGEEWKGYVV; listed as Homo sapiens) [compound 218]”, the “Peptide Exchange” value is listed as ““++” (≥20% = ++)”.

“127 (LLPTAPTTV; listed as Homo sapiens) [compound 127]”: the “Peptide Exchange” value is ““+++” (≥50 = +++)”. “60 (FVLDHEDGLNL; listed as Homo sapiens) [compound 60]”: the “Peptide Exchange” value was ““+++” (≥50 = +++)”. In the case of “178 (VLFFNVQEV; listed as Homo sapiens) [compound 178]”, the “Peptide Exchange” value is listed as ““+++” (≥50 = +++)”. “353 (ATPMPTPSV; listed as Homo sapiens) [compound 353]”: the “Peptide Exchange” value is recorded as ““++” (≥20% = ++)”. As to “12 (ALGEDEITL; listed as Homo sapiens) [compound 12]”, the “Peptide Exchange” value is ““+++” (≥50 = +++)”. Then “194 (YLDNVLAEL; listed as Homo sapiens) [compound 194]”, with ““++++” (≥75% = ++++)”; and “357 (FLIQEIKTL; listed as Homo sapiens) [compound 357]”, with ““+++” (≥50 = +++)”; and “205 (GLSQANFTL; listed as Homo sapiens) [compound 205]”, with ““+++” (≥50 = +++)”. “328 (VLLPQETAEIHL; listed as Homo sapiens) [compound 328]”: the “Peptide Exchange” value is listed as ““++++” (≥75% = ++++)”. In the case of “235 (GLDDLLLFL; listed as Homo sapiens) [compound 235]” it was ““+++” (≥50 = +++)”; in that of “340 (KLLEEICNL; listed as Homo sapiens) [compound 340]”, ““++++” (≥75% = ++++)”; in that of “298 (IILPVEVEV; listed as Homo sapiens) [compound 298]”, ““+++” (≥50 = +++)”. “369 (RLLDLENSLLGL; listed as Homo sapiens) [compound 369]”: the “Peptide Exchange” value is on record as ““+++” (≥50 = +++)”. Regarding “230 (FLQDSKVIFV; listed as Homo sapiens) [compound 230]”, the “Peptide Exchange” value is ““+++” (≥50 = +++)”.

Turning to “296 (FIAPTGHSL; listed as Homo sapiens) [compound 296]”, the “Peptide Exchange” value is reported as ““++” (≥20% = ++)”.
